Reference: patent US20220010021A1 (Sanofi, published 2022)
Where a chain is given by its changes, count along the chain named.

What was measured:
human beta-Klotho (KLB) = molecular target: T1, human beta-Klotho (KLB) (human, UniProt Q86Z14 53-997); assay: BLI off-rate screen (Octet), Ab captured via Fc;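 also: antibody supernatants applied at 25 µg/mL, dissociation monitored over 1800 s in D-PBS with 0.1% BSA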
T1 construct: also called human KLB
T1 sequence (looked up): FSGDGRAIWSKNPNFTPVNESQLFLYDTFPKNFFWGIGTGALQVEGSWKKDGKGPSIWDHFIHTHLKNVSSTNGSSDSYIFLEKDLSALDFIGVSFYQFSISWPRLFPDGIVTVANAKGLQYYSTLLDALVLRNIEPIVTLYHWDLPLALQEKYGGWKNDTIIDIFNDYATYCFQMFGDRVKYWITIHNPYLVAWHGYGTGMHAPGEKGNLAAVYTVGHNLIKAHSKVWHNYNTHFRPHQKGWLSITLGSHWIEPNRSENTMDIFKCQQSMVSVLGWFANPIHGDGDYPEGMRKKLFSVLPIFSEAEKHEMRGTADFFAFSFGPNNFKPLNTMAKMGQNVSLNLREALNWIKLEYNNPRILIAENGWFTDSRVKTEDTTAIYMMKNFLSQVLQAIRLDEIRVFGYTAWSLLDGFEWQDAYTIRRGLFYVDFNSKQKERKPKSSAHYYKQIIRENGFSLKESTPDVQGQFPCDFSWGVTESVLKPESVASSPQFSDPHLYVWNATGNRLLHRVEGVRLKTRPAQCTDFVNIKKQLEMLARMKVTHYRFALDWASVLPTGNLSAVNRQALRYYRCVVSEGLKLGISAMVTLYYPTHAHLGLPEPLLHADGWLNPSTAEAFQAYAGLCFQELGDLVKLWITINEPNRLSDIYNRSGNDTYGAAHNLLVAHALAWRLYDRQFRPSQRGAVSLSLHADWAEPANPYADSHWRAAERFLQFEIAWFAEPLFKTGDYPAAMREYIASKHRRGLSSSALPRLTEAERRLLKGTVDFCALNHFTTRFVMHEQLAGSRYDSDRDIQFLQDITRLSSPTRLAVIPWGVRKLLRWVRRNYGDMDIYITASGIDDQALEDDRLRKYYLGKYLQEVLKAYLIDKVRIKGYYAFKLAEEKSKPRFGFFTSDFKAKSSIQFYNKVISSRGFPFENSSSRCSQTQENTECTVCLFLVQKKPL

[1] = molecular target: human FGFR1c/KLB cell surface receptor complex on iLite FGF21 reporter cells (human, UniProt P11362 22-822; Q86Z14 1-1044); assay: cell-based or functional assay
Chain of human FGFR1c/KLB cell surface receptor complex on iLite FGF21 reporter cells (P11362 22-822, chain 1 of 2): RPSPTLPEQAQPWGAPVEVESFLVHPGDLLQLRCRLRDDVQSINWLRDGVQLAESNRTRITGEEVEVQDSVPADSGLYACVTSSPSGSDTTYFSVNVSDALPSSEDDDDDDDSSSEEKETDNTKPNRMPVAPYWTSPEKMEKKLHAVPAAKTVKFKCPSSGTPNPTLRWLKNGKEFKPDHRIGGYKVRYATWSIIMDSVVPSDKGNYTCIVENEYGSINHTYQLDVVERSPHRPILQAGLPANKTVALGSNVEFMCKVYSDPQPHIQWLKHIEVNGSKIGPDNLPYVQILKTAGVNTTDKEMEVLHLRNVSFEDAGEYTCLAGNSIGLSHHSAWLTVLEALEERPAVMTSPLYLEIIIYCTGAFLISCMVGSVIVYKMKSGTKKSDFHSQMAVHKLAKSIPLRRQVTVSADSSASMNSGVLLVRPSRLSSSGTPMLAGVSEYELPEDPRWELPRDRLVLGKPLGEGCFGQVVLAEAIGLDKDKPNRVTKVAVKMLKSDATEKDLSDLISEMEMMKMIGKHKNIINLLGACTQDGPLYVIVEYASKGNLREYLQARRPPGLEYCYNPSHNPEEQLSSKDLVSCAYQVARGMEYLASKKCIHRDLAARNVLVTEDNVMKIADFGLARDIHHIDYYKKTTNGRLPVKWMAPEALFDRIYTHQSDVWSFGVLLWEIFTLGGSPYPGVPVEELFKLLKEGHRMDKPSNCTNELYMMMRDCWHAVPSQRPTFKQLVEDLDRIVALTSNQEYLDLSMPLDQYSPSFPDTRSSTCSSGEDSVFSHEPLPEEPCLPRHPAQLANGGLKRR
Chain of human FGFR1c/KLB cell surface receptor complex on iLite FGF21 reporter cells (Q86Z14 whole entry, chain 2 of 2): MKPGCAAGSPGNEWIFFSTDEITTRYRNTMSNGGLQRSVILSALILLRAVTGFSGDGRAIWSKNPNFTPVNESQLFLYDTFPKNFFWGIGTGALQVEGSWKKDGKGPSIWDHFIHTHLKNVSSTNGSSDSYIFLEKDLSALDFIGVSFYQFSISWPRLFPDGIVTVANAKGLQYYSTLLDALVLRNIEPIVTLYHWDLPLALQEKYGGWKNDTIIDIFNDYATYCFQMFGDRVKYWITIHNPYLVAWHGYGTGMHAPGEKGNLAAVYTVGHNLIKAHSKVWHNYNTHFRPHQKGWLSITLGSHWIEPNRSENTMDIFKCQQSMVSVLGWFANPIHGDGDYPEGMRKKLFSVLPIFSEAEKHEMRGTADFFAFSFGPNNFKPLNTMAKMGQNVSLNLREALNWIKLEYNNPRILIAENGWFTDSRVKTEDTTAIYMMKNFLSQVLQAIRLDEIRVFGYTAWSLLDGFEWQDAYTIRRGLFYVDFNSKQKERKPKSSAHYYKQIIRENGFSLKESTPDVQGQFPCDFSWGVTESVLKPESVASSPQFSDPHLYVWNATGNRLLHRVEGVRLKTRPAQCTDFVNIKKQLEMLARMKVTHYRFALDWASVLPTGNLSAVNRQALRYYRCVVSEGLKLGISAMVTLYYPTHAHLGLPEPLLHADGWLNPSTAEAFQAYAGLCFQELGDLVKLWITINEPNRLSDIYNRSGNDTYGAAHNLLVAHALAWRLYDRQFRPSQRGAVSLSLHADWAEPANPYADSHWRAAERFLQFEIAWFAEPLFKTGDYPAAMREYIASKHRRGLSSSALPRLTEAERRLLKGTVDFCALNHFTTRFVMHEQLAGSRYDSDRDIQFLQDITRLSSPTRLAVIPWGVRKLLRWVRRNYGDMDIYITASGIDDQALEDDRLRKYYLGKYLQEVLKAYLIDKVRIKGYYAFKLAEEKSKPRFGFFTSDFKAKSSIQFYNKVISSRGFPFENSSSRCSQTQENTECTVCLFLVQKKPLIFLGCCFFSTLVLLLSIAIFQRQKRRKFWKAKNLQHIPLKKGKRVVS

B1: 16H7 variant, light chain N25E (antibody, human IgG4 S228P, lambda, V domains shown)
VH: not shown
VL: SYVLTQPPSVSVAPGQTARITCGGENIGSESVHWYQQKPGQAPVLVVYDDSDRPSGIPERFSGSNSGNTATLTISRVEAGDEADYYCQVWDGNSDHVVFGGGTKLTVLG
notes: IgG4 backbone
Human beta-Klotho (KLB)
  koff: 3e-05 s⁻¹
[1]
  Mean E max (%): 106%
  Mean EC50: 0.107 nM

B2: 16H7 variant, light chain N25G (antibody, human IgG4 S228P, lambda, V domains shown)
VH: not shown
VL: B1 VL with E25G
notes: IgG4 backbone
Human beta-Klotho (KLB)
  koff: 3.2e-05 s⁻¹
[1]
  Mean E max (%): 100%
  Mean EC50: 0.118 nM

B3: 16H7 variant, light chain N25P (antibody, human IgG4 S228P, lambda, V domains shown)
VH: not shown
VL: B1 VL with E25P
notes: IgG4 backbone
Human beta-Klotho (KLB)
  koff: 1.2e-05 s⁻¹
[1]
  Mean E max (%): 106%
  Mean EC50: 0.132 nM

B4: 16H7 variant, light chain N26Y (antibody, human IgG4 S228P, lambda, V domains shown)
VH: not shown
VL: B1 VL with E25N, N26Y
notes: IgG4 backbone
Human beta-Klotho (KLB)
  koff: 3.7e-05 s⁻¹
[1]
  Mean E max (%): 110%
  Mean EC50: 0.124 nM

B5: 16H7 variant, light chain N25M (antibody, human IgG4 S228P, lambda, V domains shown)
VH: not shown
VL: B1 VL with E25M
notes: IgG4 backbone
Human beta-Klotho (KLB)
  koff: 3.1e-06 s⁻¹
[1]
  Mean E max (%): 102%
  Mean EC50: 0.131 nM

B6: 16H7 variant, light chain N26Q (antibody, IgG4, V domains shown)
VH: not shown
VL: B1 VL with E25N, N26Q
notes: IgG4 backbone; copies: 2 + 2
Human beta-Klotho (KLB)
  koff: 1e-07 s⁻¹
[1]
  Mean E max (%): 109%
  Mean EC50: 0.119 nM

B7: 16H7 variant, light chain N26S (antibody, IgG4, V domains shown)
VH: not shown
VL: B1 VL with E25N, N26S
notes: IgG4 backbone; copies: 2 + 2
Human beta-Klotho (KLB)
  koff: 1e-07 s⁻¹
[1]
  Mean E max (%): 101%
  Mean EC50: 0.118 nM

B8: 16H7 variant, light chain N25Y (antibody, human IgG4 S228P, lambda, V domains shown)
VH: not shown
VL: B1 VL with E25Y
notes: IgG4 backbone
Human beta-Klotho (KLB)
  koff: 3.1e-05 s⁻¹
[1]
  Mean E max (%): 104%
  Mean EC50: 0.099 nM

B9: 16H7 variant, light chain N26V (antibody, human IgG4 S228P, lambda, V domains shown)
VH: not shown
VL: B1 VL with E25N, N26V
notes: IgG4 backbone
Human beta-Klotho (KLB)
  koff: 3.5e-05 s⁻¹
[1]
  Mean E max (%): 106%
  Mean EC50: 0.118 nM

B10: 16H7 variant, light chain N25K (antibody, human IgG4 S228P, lambda, V domains shown)
VH: not shown
VL: B1 VL with E25K
notes: IgG4 backbone
Human beta-Klotho (KLB)
  koff: 3.3e-05 s⁻¹
[1]
  Mean E max (%): 110%
  Mean EC50: 0.182 nM

B11: 16H7 variant, light chain N26G (antibody, human IgG4 S228P, lambda, V domains shown)
VH: not shown
VL: B1 VL with E25N, N26G
notes: IgG4 backbone
Human beta-Klotho (KLB)
  koff: 3.7e-05 s⁻¹
[1]
  Mean E max (%): 94%
  Mean EC50: 0.097 nM

B12: 16H7 variant, light chain N26C (antibody, IgG4, V domains shown)
VH: not shown
VL: B1 VL with E25N, N26C
notes: IgG4 backbone; copies: 2 + 2
Human beta-Klotho (KLB)
  koff: 1e-07 s⁻¹
[1]
  Mean E max (%): 103%
  Mean EC50: 0.146 nM

B13: 16H7 variant, light chain N26L (antibody, human IgG4 S228P, lambda, V domains shown)
VH: not shown
VL: B1 VL with E25N, N26L
notes: IgG4 backbone
Human beta-Klotho (KLB)
  koff: 4.4e-05 s⁻¹
[1]
  Mean E max (%): 103%
  Mean EC50: 0.131 nM

B14: 16H7 variant, light chain N26F (antibody, human IgG4 S228P, lambda, V domains shown)
VH: not shown
VL: B1 VL with E25N, N26F
notes: IgG4 backbone
Human beta-Klotho (KLB)
  koff: 5.4e-05 s⁻¹
[1]
  Mean E max (%): 95%
  Mean EC50: 0.158 nM

B15: 16H7 variant, light chain N25S (antibody, human IgG4 S228P, lambda, V domains shown)
VH: not shown
VL: B1 VL with E25S
notes: IgG4 backbone
Human beta-Klotho (KLB)
  koff: 4.4e-05 s⁻¹
[1]
  Mean E max (%): 98%
  Mean EC50: 0.131 nM

B16: 16H7 variant, light chain N26A (antibody, human IgG4 S228P, lambda, V domains shown)
VH: not shown
VL: B1 VL with E25N, N26A
notes: IgG4 backbone
Human beta-Klotho (KLB)
  koff: 4.6e-06 s⁻¹
[1]
  Mean E max (%): 98%
  Mean EC50: 0.106 nM

B17: 16H7 variant, light chain N25I (antibody, human IgG4 S228P, lambda, V domains shown)
VH: not shown
VL: B1 VL with E25I
notes: IgG4 backbone
Human beta-Klotho (KLB)
  koff: 2.2e-05 s⁻¹
[1]
  Mean E max (%): 104%
  Mean EC50: 0.122 nM

B18: 16H7 variant, light chain N26D (antibody, IgG4, V domains shown)
VH: not shown
VL: B1 VL with E25N, N26D
notes: IgG4 backbone; copies: 2 + 2
Human beta-Klotho (KLB)
  koff: 5.6e-05 s⁻¹
[1]
  Mean E max (%): 101%
  Mean EC50: 0.123 nM

B19: 16H7 variant, light chain N25W (antibody, human IgG4 S228P, lambda, V domains shown)
VH: not shown
VL: B1 VL with E25W
notes: IgG4 backbone
Human beta-Klotho (KLB)
  koff: 1e-07 s⁻¹
[1]
  Mean E max (%): 99%
  Mean EC50: 0.099 nM

B20: 16H7 variant, light chain N26H (antibody, human IgG4 S228P, lambda, V domains shown)
VH: not shown
VL: B1 VL with E25N, N26H
notes: IgG4 backbone
Human beta-Klotho (KLB)
  koff: 3.5e-05 s⁻¹
[1]
  Mean E max (%): 112%
  Mean EC50: 0.138 nM

B21: 16H7 variant, light chain N26I (antibody, IgG4, V domains shown)
VH: not shown
VL: B1 VL with E25N, N26I
notes: IgG4 backbone; copies: 2 + 2
Human beta-Klotho (KLB)
  koff: 6.3e-05 s⁻¹
[1]
  Mean E max (%): 110%
  Mean EC50: 0.113 nM

B22: 16H7 variant, light chain N26K (antibody, human IgG4 S228P, lambda, V domains shown)
VH: not shown
VL: B1 VL with E25N, N26K
notes: IgG4 backbone
Human beta-Klotho (KLB)
  koff: 1e-07 s⁻¹
[1]
  Mean E max (%): 104%
  Mean EC50: 0.143 nM

B23: 16H7 variant, light chain N25V (antibody, human IgG4 S228P, lambda, V domains shown)
VH: not shown
VL: B1 VL with E25V
notes: IgG4 backbone
Human beta-Klotho (KLB)
  koff: 3.2e-05 s⁻¹
[1]
  Mean E max (%): 106%
  Mean EC50: 0.121 nM

B24: 16H7 variant, light chain N25L (antibody, human IgG4 S228P, lambda, V domains shown)
VH: not shown
VL: B1 VL with E25L
notes: IgG4 backbone
Human beta-Klotho (KLB)
  koff: 1.2e-05 s⁻¹
[1]
  Mean E max (%): 109%
  Mean EC50: 0.134 nM

B25: 16H7 variant, light chain N26E (antibody, human IgG4 S228P, lambda, V domains shown)
VH: not shown
VL: B1 VL with E25N, N26E
notes: IgG4 backbone
Human beta-Klotho (KLB)
  koff: 7.2e-05 s⁻¹
[1]
  Mean E max (%): 106%
  Mean EC50: 0.106 nM

B26: 16H7 variant, light chain N25H (antibody, human IgG4 S228P, lambda, V domains shown)
VH: not shown
VL: B1 VL with E25H
notes: IgG4 backbone
Human beta-Klotho (KLB)
  koff: 3e-05 s⁻¹
[1]
  Mean E max (%): 106%
  Mean EC50: 0.137 nM

B27: 16H7 variant, light chain N26R (antibody, human IgG4 S228P, lambda, V domains shown)
VH: not shown
VL: B1 VL with E25N, N26R
notes: IgG4 backbone
Human beta-Klotho (KLB)
  koff: 2.5e-05 s⁻¹
[1]
  Mean E max (%): 110%
  Mean EC50: 0.205 nM

B28: 16H7 variant, light chain N25Q (antibody, human IgG4 S228P, lambda, V domains shown)
VH: not shown
VL: B1 VL with E25Q
notes: IgG4 backbone
Human beta-Klotho (KLB)
  koff: 1e-07 s⁻¹
[1]
  Mean E max (%): 102%
  Mean EC50: 0.096 nM

B29: 16H7 variant, light chain N25R (antibody, human IgG4 S228P, lambda, V domains shown)
VH: not shown
VL: B1 VL with E25R
notes: IgG4 backbone
Human beta-Klotho (KLB)
  koff: 4.1e-05 s⁻¹
[1]
  Mean E max (%): 104%
  Mean EC50: 0.178 nM

B30: 16H7 variant, light chain N25T (antibody, human IgG4 S228P, lambda, V domains shown)
VH: not shown
VL: B1 VL with E25T
notes: IgG4 backbone
Human beta-Klotho (KLB)
  koff: 2.3e-05 s⁻¹
[1]
  Mean E max (%): 111%
  Mean EC50: 0.117 nM

B31: 16H7 variant, light chain N26W (antibody, IgG4, V domains shown)
VH: not shown
VL: B1 VL with E25N, N26W
notes: IgG4 backbone; copies: 2 + 2
Human beta-Klotho (KLB)
  koff: 6.7e-05 s⁻¹
[1]
  Mean E max (%): 105%
  Mean EC50: 0.129 nM

B32: 16H7 variant, light chain N26M (antibody, human IgG4 S228P, lambda, V domains shown)
VH: not shown
VL: B1 VL with E25N, N26M
notes: IgG4 backbone
Human beta-Klotho (KLB)
  koff: 2.2e-05 s⁻¹
[1]
  Mean E max (%): 111%
  Mean EC50: 0.153 nM

B33: 16H7 variant, light chain N26P (antibody, human IgG4 S228P, lambda, V domains shown)
VH: not shown
VL: B1 VL with E25N, N26P
notes: IgG4 backbone
Human beta-Klotho (KLB)
  koff: 5.1e-05 s⁻¹
[1]
  Mean E max (%): 100%
  Mean EC50: 0.099 nM
